Experimental data taken from the supplement of paper PMC10724198.
± gives the standard deviation of the averaged measurements.

Tests used:
Saccharomyces cerevisiae [1] = experiment: protein stability index of tFT-peptide fusion (C-terminal peptide) (PSI (0-1 scale)); higher = more stable (slower turnover)
Method: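 MPS profiling in S. cerevisiae of the tFT-X12 degron library: putative degron peptides plus stable controls, 12 aa, fused to the C-terminus of a sfGFP-mCherry timer. Cells are FACS-sorted into 8 mCherry/sfGFP bins and deep-sequenced. PSI runs from 0 (unstable) to 1 (stable). Backgrounds are wild type, das1Δ and doa10Δ at 30 °C, and wild type, das1Δ, cdc34-1 and cdc53-1 at 37 °C; 2-3 technical replicates each.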

Saccharomyces cerevisiae [2] = experiment: as above; conditions: genetic background: wild type; temperature: 30 C
[3] = genetic background: cdc34-1, temperature: 37 C
[4] = genetic background: cdc53-1, temperature: 37 C
[5] = genetic background: das1 deletion, temperature: 30 C
[6] = genetic background: das1 deletion, temperature: 37 C
[7] = genetic background: doa10 deletion, temperature: 30 C
[8] = genetic background: wild type, temperature: 30 C
[9] = genetic background: wild type, temperature: 37 C
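Further: PSI is a weighted mean of sequencing reads over stability bins, variants kept only with over 10 reads, mCherry proximal and sfGFP distal, peptide attached via GGGS linker.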

Sequence	protein stability index (Saccharomyces cerevisiae [1]; [3])	protein stability index (Saccharomyces cerevisiae [1]; [4])	protein stability index (Saccharomyces cerevisiae [1]; [5])	protein stability index (Saccharomyces cerevisiae [1]; [6])	protein stability index (Saccharomyces cerevisiae [1]; [7])	protein stability index (Saccharomyces cerevisiae [1]; [8])	protein stability index (Saccharomyces cerevisiae [1]; [9])	protein stability index (Saccharomyces cerevisiae [2])
SWMSQFSILLTA	0.0938 ± 0.037	0.122 ± 0.0092	0.188 ± 0.021	0.23 ± 0.0046	0.1535 ± 0.00097	0.167 ± 0.031	0.199 ± 0.04	0.285 ± 0.043
SHWSMQATLQLV	0.617 ± 0.046	0.694 ± 0.025	0.568 ± 0.021	0.6866 ± 0.0046	0.443 ± 0.034	0.468 ± 0.011	0.601 ± 0.012	0.469 ± 0.016
SCIVRTLVPCPS	0.377 ± 0.0049	0.419 ± 0.034	0.253 ± 0.04	0.4761 ± 0.0022	0.224 ± 0.016	0.27 ± 0.029	0.445 ± 0.0094	0.373 ± 0.022
FVGVVCILWLVG	0.177 ± 0.0044	0.33 ± 0.0064	0.252 ± 0.022	0.405 ± 0.0085	0.153 ± 0.017	0.176 ± 0.026	0.318 ± 0.073	0.356 ± 0.011
HCLLQDVPPTLH	0.641 ± 0.026	0.6925 ± 0.0062	0.711 ± 0.051	0.678 ± 0.014	0.703 ± 0.021	0.702 ± 0.015	0.66 ± 0.02	0.734 ± 0.031
FFFLILFPLSYS	0.4518 ± 0.0042	0.526 ± 0.044	0.376 ± 0.028	0.5472 ± 0.0028	0.3517 ± 0.0033	0.372 ± 0.0098	0.513 ± 0.041	0.49 ± 0.072
LCFLVALASMLF	0.5426 ± 0.0019	0.579 ± 0.038	0.472 ± 0.036	0.549 ± 0.018	0.4385 ± 0.0032	0.462 ± 0.026	0.5246 ± 0.00074	0.504 ± 0.01
EGALSGGGKTSG	0.643 ± 0.045	0.719 ± 0.019	0.634 ± 0.016	0.7181 ± 0.0047	0.636 ± 0.014	0.631 ± 0.012	0.692 ± 0.018	0.651 ± 0.24
CFVFYALFGFAV	0.37 ± 0.037	0.463 ± 0.027	0.302 ± 0.036	0.484 ± 0.0052	0.252 ± 0.0068	0.285 ± 0.017	0.431 ± 0.046	0.401 ± 0.013
VFWVVFRALVGD	0.191 ± 0.015	0.29497 ± 0.00028	0.217 ± 0.018	0.269 ± 0.02	0.222 ± 0.013	0.212 ± 0.0029	0.26 ± 0.0051	0.233 ± 0.022
GTWCLAMARFCA	0.615 ± 0.056	0.755 ± 0.016	0.662 ± 0.026	0.762 ± 0.047	0.351 ± 0.025	0.375 ± 0.025	0.606 ± 0.039	0.4775 ± 0.0038
